According to the Human Domainome abundance scans (Beltran et al. 2025):

B1: Ankyrin repeat and SAM domain-containing protein 6, residues 774 to 836; numbered along this chain, Q68DC2 (parent)
chain: DEDELTGILKKLSLEKYQPIFEEQEVDMEAFLTLTDGDLKELGIKTDGSRQQILAAISELNAG

Variants of: B1
Experiment: abundance fitness (aPCA) (normalised: wild type 0, dead -1); higher = more abundant; growth selection in yeast, the domain comes from the species named
Settings: Homo sapiens

Abundance fitness: each site, then its substitutions
E41: D -0.044 | Y -0.321 | G -0.092 | T -0.039 | I -0.472 | M -0.263 | P -0.658 | C -0.113 | N -0.052 | W -0.498 | Q 0.044 | F -0.376 | R -0.049 | H -0.045 | V -0.232 | L -0.205 | S -0.022 | K -0.109 | A -0.047
Q51: G -0.216 | A -0.084 | M -0.215 | Y -0.483 | T -0.163 | D -0.076 | P -0.54 | E -0.128 | L -0.252 | C -0.379 | N -0.044 | W -0.724 | R -0.092 | V -0.233 | S -0.082
L54: M -0.137 | I -0.133 | D -0.59 | Q -0.273 | H -0.439 | F -0.757 | G -0.433 | C -0.075 | K -0.245 | E -0.24 | A -0.359 | P -0.311
I53: V -0.104 | Q -0.686 | L -0.002 | A -0.331 | N -0.451 | F -0.432 | R -0.559 | M -0.062 | D -0.33 | C -0.404 | W -0.904 | T -0.345 | S -0.44 | E -0.319 | P -0.44 | H -0.481
G48: T 0.149 | W -0.424 | K -0.131 | E 0.107 | Q -0.039 | A -0.047 | F -0.339 | M -0.113 | L -0.042 | D -0.016 | Y -0.321 | S 0.007
L34: H -0.356 | W -0.657 | G -0.551 | V -0.345 | A -0.403 | K -0.309 | D -0.654 | S -0.457 | N -0.483 | R -0.523 | C -0.459 | E -0.526 | T -0.556 | Y -0.095 | F -0.298 | I -0.627 | P -0.561 | M 0.038
K40: D -0.084 | V 0.044 | N -0.146 | H -0.286 | F -0.326 | Y -0.115 | T -0.138 | W -0.263 | E -0.041 | L -0.036 | A -0.121 | Q -0.142 | P -0.67 | C -0.215 | G -0.31 | S -0.096
L39: G -0.699 | M -0.437 | P -0.747 | W -1 | D -0.499 | H -0.751 | V -0.57 | T -0.667 | R -0.599 | E -0.625 | A -0.59 | C -0.662 | S -0.683 | Y -0.673 | N -0.514 | F -0.616 | Q -0.605 | K -0.912
G37: Y -0.138 | A 0.004 | P -0.035 | S -0.058 | C -0.269 | L -0.049 | V -0.028 | W -0.331 | N -0.095 | T -0.064 | E -0.001 | K 0.033 | D 0.117 | H -0.087 | F -0.051 | R -0.111
D38: H -0.418 | V -1.06 | N -0.2 | L -1.16 | A -0.49 | F -1.28 | K -0.188 | Q -0.165 | M -0.611 | I -1.12 | E -0.072 | R -0.074 | Y -1.11 | G -0.273 | P -0.645 | S -0.232 | T -0.369 | C -0.773 | W -0.965
D47: C -0.128 | Y -0.114 | S -0.114 | M -0.138 | F -0.14 | V -0.049 | K -0.126 | R -0.149 | G -0.158 | L -0.089 | W -0.309 | N -0.126 | H 0.042 | Q -0.054 | E 0.056 | A -0.061 | I -0.058 | T -0.029
G43: L -0.655 | M -0.611 | P -0.683 | H -0.556 | D -0.199 | T -0.675 | Q -0.608 | S -0.477 | Y -1.22 | R -0.616 | I -1.07 | W -1.16 | K -0.326 | C -0.742
Q52: S -0.105 | F -0.667 | M -0.302 | E 0.079 | A -0.04 | K -0.095 | D 0.112 | H -0.155 | N -0.193 | Y -0.574 | W -0.805 | P -0.715 | T -0.2 | C -0.12 | L -0.132 | G -0.279 | I -0.211
I44: P -0.746 | E -0.586 | F -0.144 | Q -0.643 | G -0.592 | T -0.555 | M -0.253 | W -0.654 | V 0.037 | Y -0.766 | N -0.645 | R -0.676 | H -0.806 | C -0.458 | S -0.651 | L -0.245 | A -0.574
T33: S -0.023 | Y -0.496 | Q -0.071 | V -0.215 | W -0.49 | R 0.048 | P -0.712
R50: Q -0.621 | V -0.492 | M -0.722 | E -0.526 | T -0.71 | C -0.363 | G -0.677 | S -0.524 | P -0.649 | L -0.623 | H -0.527 | Y -0.834 | N -0.653 | K -0.582 | F -1 | I -0.292 | W -0.706 | A -0.494
S49: E 0.181 | G -0.055 | Y -0.242 | M -0.068 | C 0.096 | D 0.157 | N 0.003 | W -0.391 | K -0.186 | F -0.249 | R -0.192 | V 0.062 | P -0.208 | L -0.191 | T -0.054 | Q -0.03 | H 0.009
T35: I -0.695 | L -0.932 | Q -0.026 | A -0.377 | R -0.057 | G -0.199 | M -0.65 | H -0.302 | V -0.687 | E -0.067 | C -0.363 | S 0.037 | D 0.037 | W -0.879 | F -0.779 | N -0.078
K45: C -0.191 | F -0.143 | M 0.008 | I -0.348 | Y -0.233 | E 0.013 | Q -0.151 | N -0.079 | T -0.02 | R -0.027 | A -0.055 | D 0.079 | V -0.225 | G -0.114 | L -0.066 | H -0.076 | P -0.044
T46: P -0.048 | D 0.118 | K 0.061 | Y -0.197 | G -0.011 | V -0.138 | N -0.159 | F -0.361 | H 0.151 | M -0.039 | E 0.084 | S 0.017 | C 0.016 | I -0.019 | L -0.116 | Q -0.201 | W -0.521
D36: S -0.392 | C -0.487 | V -0.571 | I -0.642 | K -0.449 | Q -0.565 | G -0.405 | N -0.252 | E -0.051 | T -0.532 | H -0.584 | F -1.02 | L -0.702 | R -0.72 | M -0.441
